Tests used:
TrkB and TrkA = details: literature; cited from earlier work
[1] = test system: dissociated E8 chick nodose neurons; experiment: Survival of dissociated E8 chick nodose ganglion neurons; assay type: cell-based; details: for Nodose neurons rescued (survival): saturating concentrations (20-50 ng/ml)
Description: (§1) Dissociated neurons from chick E8 sympathetic and nodose ganglia were preplated on plastic for 2 hr and then cultured in 96 well-plates coated with poly-L-ornithine and laminin at a density of 800-1000 cells/well. Serial dilutions of conditioned media containing equivalent amounts of recombinant proteins were added at the time of plating and neuronal survival was determined after 36-48 hr by phase contrast microscopy, scoring the number of surviving neurons in the entire well.

[2] = test system: dissociated E8 chick sympathetic neurons; experiment: Survival of dissociated E8 chick sympathetic neurons; assay type: cell-based; details: 2 ng/ml
Description: as §1

[3] = test system: E8 chick sympathetic ganglia; experiment: Neurite outgrowth from explanted E8 chick sympathetic ganglia; assay type: cell-based; details: for Biological Activity % of wild type (neurite outgrowth, sympathetic ganglia): explants of embryonic sympathetic ganglia, relative to wt NGF
Description: Fibre outgrowth was scored on a semiquantitative scale in biological units (BU) by comparison to standards obtained with purified mouse NGF, for which 1 BU is equivalent to approximately 5ng/ml. The concentration of each protein that gave 0.6 BU in this scale was determined, and used to calculate the relative activity compared to that obtained with wt NGF.

TrkA [4] = experiment: Competitive TrkA receptor binding: displacement of 125I-NGF from rtrkA-3T3 cells; details: 125I-NGF displacement, relative binding from IC50 versus wt NGF
Description: NIH3T3 fibroblasts expressing TrkA, TrkB or TrkC were used at 2 to 1-33 10^6 cells/ml. […] All components were added at the same time and the cells were collected by centrifugation after equilibrium was reached (90-120 minutes incubation). Cell pellets were then counted in a gamma counter. […] Nonspecific binding was measured in a parallel incubation to which 300 to 1000-fold molar excess of unlabelled purified factor was added.

TrkB [5] = experiment: Competitive TrkB receptor binding: displacement of 125I-BDNF from rtrkB-3T3 cells; details: for Receptor Binding % of wild type (TrkB): rtrkB-3T3 cells, 125I-BDNF displacement, relative binding from IC50 versus wt BDNF
Description: Purified mouse NGF and BDNF were labeled with ^125 I by the lactoperoxidase method to an average specific activity of 1×10^8cpm/μg. For the labeling of BDNF, the modifications described by Rodriguez-Tebar et al. ([Rodriguez-Tebar, 1992]) were used. NIH3T3 fibroblasts expressing TrkA, TrkB or TrkC were used at 2 to 1-33 10^6 cells/ml. Steady state binding was measured in competition assays performed at 4° C. using 1.5×10^-9 M ^125 I-BDNF and serial dilutions of conditioned media containing equivalent amounts of wt or mutated NGF protein. All components were added at the same time and the cells were collected by centrifugation after equilibrium was reached (90-120 minutes incubation). Cell pellets were then counted in a gamma counter. […] Nonspecific binding was measured in a parallel incubation to which 300 to 1000-fold molar excess of unlabelled purified factor was added. All results were corrected for this nonspecific binding, which was less than 10% (for NGF) or 30% (for BDNF) of total binding. The concentration of each chimeric, mutant and wild type molecule that gave 50% binding (IC50) was determined, and relative binding was calculated using the relationship:(mutant IC50 /wild type IC50)×100.

TrkB [6] = experiment: Tyrosine phosphorylation of TrkB receptors in rtrkB-3T3 cells; assay type: cell-based
Description: (§2) Plates were incubated 15 minutes at 4° C. after which insoluble material was removed by centrifugation. Cell lysates were normalized for protein content before immunoprecipitation. […] After 2 hr at 4° C., immunocomplexes were collected with Protein A-Sepharose (Pharmacia, Sweden), washed in lysis buffer and boiled for 5 minutes before SDS/PAGE. After electrophoresis, gels were blotted to nitrocellulose membranes, reacted with anti-phosphotyrosine monoclonal antibody 4G10 (UBI, New York) and developed with the ECL Western Detection System (Amersham, UK). Appropriately exposed autoradiograms of phosphotyrosine blots were used for densitometric scanning.

TrkA [7] = experiment: Tyrosine phosphorylation of TrkA receptors in rtrkA-3T3 cells; assay type: cell-based; details: 100 ng/ml
Description: as §2

TrkC = experiment: Tyrosine phosphorylation of TrkC receptors in Trk-expressing cells; assay type: cell-based; details: 100 ng/ml
Description: A confluent 10 cm plate containing about 10^7 rtrk-3T3 or rtrkB-3T3 cells was treated for 5 minutes at 37° C. with wt, chimeric or mutant factors and subsequently lysed with 1 ml of ice-cold buffer containing 1% NP40, 20 mM Tris pH 8.0, 137 mM NaCl, 2 mM EDTA, 10% glycerol, 1 mM PMSF, 0.15 U/ml aprotinin, 20 μM leupeptine and 1 mM Na orthovanadate. Plates were incubated 15 minutes at 4° C. after which insoluble material was removed by centrifugation. Cell lysates were normalized for protein content before immunoprecipitation. Trk immunoprecipitation was performed by incubating lysates with 1 μl of anti-TrkB polyclonal antiserum 443 ([Soppet, 1991]) which recognizes TrkA, TrkB and TrkC. After 2 hr at 4° C., immunocomplexes were collected with Protein A-Sepharose (Pharmacia, Sweden), washed in lysis buffer and boiled for 5 minutes before SDS/PAGE. After electrophoresis, gels were blotted to nitrocellulose membranes, reacted with anti-phosphotyrosine monoclonal antibody 4G10 (UBI, New York) and developed with the ECL Western Detection System (Amersham, UK). Appropriately exposed autoradiograms of phosphotyrosine blots were used for densitometric scanning.

**Q.** Which “Efficiency to mediate biological effects through TrkB and TrkA lower than BDNF or NGF” value (TrkB and TrkA) does the source give for “wild-type NT-3: recombinant wild-type rat neurotrophin-3 (SEQ ID NO. 3) produced in COS cells [reference compound]” here?
**A.** about 100 fold

**Q.** And the “Nodose neurons rescued (survival)” value [1]?
**A.** 25%

**Q.** And the “Survival of dissociated sympathetic neurons (in words)” value [2]?
**A.** no survival

**Q.** What about the “Biological activity, neurite outgrowth from sympathetic ganglia (in words)” value [3] of the same molecule?
**A.** only a marginal effect

**Q.** What about the “Receptor Binding % of wild type (TrkA)” value (TrkA [4]) of the same molecule?
**A.** about 3 % of wild type

B1: wt NGF: recombinant wild-type rat nerve growth factor (SEQ ID NO. 1) produced in COS cells (protein)
chain: SSTHPVFHMGEFSVCDSVSVWVGDKTTATDIKGKEVTVLGEVNINNSVFKQYFFETKCRAPNPVESGCRGIDSKHWSNYCTTTHTFVKALTTDDKQAAWRFIRIDTACVCVLSRKAARRG
**Q.** Which “Receptor Binding % of wild type (TrkB)” value (TrkB [5]) does the source give for B1 here?
**A.** < 0,2 % of wild type

**Q.** What about the “Survival of nodose neurons (in words)” value [1] of the same molecule?
**A.** failed to rescue neurons

**Q.** And the “Biological Activity % of wild type (neurite outgrowth, sympathetic ganglia)” value [3]?
**A.** 100 % of wild type

**Q.** And the “Receptor Binding % of wild type (TrkA)” value (TrkA [4])?
**A.** 100 % of wild type

B2: wt BDNF: recombinant wild-type brain-derived neurotrophic factor (SEQ ID NO. 2) produced in COS cells (protein)
chain: HSDPARRGELSVCDSISEWVTAADKKTAVDMSGGTVTVLEKVPVSKGQLKQYFYETKCNPMGYTKEGCRGIDKRHWSNQCRTTQSYVRALTMDSKKRIGWRFIRIDTSCVCTLTIKRGR
**Q.** What does the source list for B2?
**A.** Receptor Binding % of wild type (TrkB) (TrkB [5]): 100 % of wild type; Nodose neurons rescued (survival) [1]: 40%; Biological Activity % of wild type (neurite outgrowth, sympathetic ganglia) [3]: < 0,2 % of wild type; EC50 of TrkB receptor phosphorylation (TrkB [6]; dose-response, densitometric scanning of phosphotyrosine blots, rtrkB-3T3 cells): 5 ng/mL; Receptor Binding % of wild type (TrkA) (TrkA [4]): < 0,2 % of wild type

B3: PNT-1: NT-3 with variable region V replaced from BDNF and amino terminus (residues 3-9) replaced from NGF (protein)
chain: B1 chain
**Q.** Which results are given for B3?
**A.** TrkB receptor binding (in words) (TrkB [5]): not changed; Increase of nodose neuron survival compared to NT-3 ([1]; saturating concentrations): ~2 fold; Nodose neurons rescued (survival) [1]: 45%; Survival of dissociated sympathetic neurons (in words) [2]: correlated with survival of dissociated sympathetic neurons; Biological activity, neurite outgrowth from sympathetic ganglia (in words) [3]: efficiently stimulated neurite outgrowth; Potency in neurite outgrowth from sympathetic ganglia lower than wild type NGF ([3]; dose-response curves): 15 fold; TrkB tyrosine phosphorylation / activation (in words) (TrkB [6]; 100 ng/ml): efficient tyrosine phosphorylation; TrkA tyrosine phosphorylation / activation (in words) (TrkA [7]): efficient tyrosine phosphorylation; Receptor Binding % of wild type (TrkA) (TrkA [4]): ~50 % of wild type; TrkC tyrosine phosphorylation (in words) (TrkC): efficient tyrosine phosphorylation

— US5889173A, “DNA encoding multifunctional neurothrophic factors” (priority 1996, dated 1999)
